Assays:
[1] = tested on: Mu-LQ-AMC
[2] = tested on: Mu-HSSKLQ-AMC (His-Ser-Ser-Lys-Leu-Gln; SEQ ID NO:7)
[3] = tested on: Mu-SKLQ-AMC (Ser-Lys-Leu-Gln; SEQ ID NO:1)
[4] = tested on: Mu-EHSSKLQ-AMC (Glu-His-Ser-Ser-Lys-Leu-Gln; SEQ ID NO:10)
[5] = tested on: Mu-KLQ-AMC
[6] = tested on: Mu-QNKISYQ-AMC (Gln-Asn-Lys-Ile-Ser-Tyr-Gln; SEQ ID NO:11)
[7] = tested on: Mu-ENKISYQ-AMC (Glu-Asn-Lys-Ile-Ser-Tyr-Gln; SEQ ID NO:12)
[8] = tested on: Mu-ATKSKQH-AMC (Ala-Thr-Lys-Ser-Lys-Gln-His; SEQ ID NO:13)
[9] = tested on: Mu-HSSKLQ-AMC (His-Ser-Ser-Lys-Leu-Gln; SEQ ID NO:7); experiment: fluorogenic AMC-release kinetics, Lineweaver-Burke plot
[10] = tested on: Mu-SKLQ-AMC (Ser-Lys-Leu-Gln; SEQ ID NO:1); experiment: as above
[11] = tested on: Mu-EHSSKLQ-AMC (Glu-His-Ser-Ser-Lys-Leu-Gln; SEQ ID NO:10); experiment: as above
[12] = tested on: Mu-ATKSKQH-AMC (Ala-Thr-Lys-Ser-Lys-Gln-His; SEQ ID NO:13); experiment: as above

plasmin, sequence (P00747 20-580): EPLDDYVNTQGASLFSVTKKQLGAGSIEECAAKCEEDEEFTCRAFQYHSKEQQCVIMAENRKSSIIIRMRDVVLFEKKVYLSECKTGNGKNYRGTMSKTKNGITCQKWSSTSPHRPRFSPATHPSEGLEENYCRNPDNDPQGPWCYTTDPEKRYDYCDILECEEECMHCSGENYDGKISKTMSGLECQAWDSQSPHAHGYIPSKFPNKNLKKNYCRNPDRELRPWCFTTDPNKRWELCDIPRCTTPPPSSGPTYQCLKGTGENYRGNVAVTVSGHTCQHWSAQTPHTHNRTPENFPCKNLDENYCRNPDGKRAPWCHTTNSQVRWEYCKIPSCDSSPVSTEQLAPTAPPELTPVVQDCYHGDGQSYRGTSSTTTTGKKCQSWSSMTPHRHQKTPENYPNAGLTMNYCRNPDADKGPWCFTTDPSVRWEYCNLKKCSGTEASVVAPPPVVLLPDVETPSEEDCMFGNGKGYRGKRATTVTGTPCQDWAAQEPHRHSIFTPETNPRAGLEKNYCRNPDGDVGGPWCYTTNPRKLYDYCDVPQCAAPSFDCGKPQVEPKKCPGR
plasmin, sequence (P00747 581-810): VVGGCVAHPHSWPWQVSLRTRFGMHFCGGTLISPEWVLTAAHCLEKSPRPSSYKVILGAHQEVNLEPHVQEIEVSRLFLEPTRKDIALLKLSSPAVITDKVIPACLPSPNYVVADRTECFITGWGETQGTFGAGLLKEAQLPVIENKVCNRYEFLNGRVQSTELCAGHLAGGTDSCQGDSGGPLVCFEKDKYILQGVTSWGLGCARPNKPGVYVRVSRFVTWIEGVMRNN
tissue plasminogen activator (TPA), sequence (P00750 36-562): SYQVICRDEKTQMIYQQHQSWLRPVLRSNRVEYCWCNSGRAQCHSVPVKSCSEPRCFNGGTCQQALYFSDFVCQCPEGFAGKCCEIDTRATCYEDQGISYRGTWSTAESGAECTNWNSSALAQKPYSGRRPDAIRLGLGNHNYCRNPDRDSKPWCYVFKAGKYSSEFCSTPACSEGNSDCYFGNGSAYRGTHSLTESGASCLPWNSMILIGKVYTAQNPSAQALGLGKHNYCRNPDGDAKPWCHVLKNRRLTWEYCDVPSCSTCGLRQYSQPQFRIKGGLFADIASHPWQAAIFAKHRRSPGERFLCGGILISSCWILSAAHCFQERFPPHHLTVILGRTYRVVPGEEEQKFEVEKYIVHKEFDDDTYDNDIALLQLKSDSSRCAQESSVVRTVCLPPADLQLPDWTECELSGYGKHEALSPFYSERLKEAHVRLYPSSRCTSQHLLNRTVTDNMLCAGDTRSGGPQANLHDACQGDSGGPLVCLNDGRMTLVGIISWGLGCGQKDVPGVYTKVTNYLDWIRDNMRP

Substance	peptide cleavage rate (AMC release) (pmol/min/200 pmol protease) [1]	peptide cleavage rate (AMC release) (pmol/min/200 pmol protease) [2]	peptide cleavage rate (AMC release) (pmol/min/200 pmol protease) [3]	peptide cleavage rate (AMC release) (pmol/min/200 pmol protease) [4]	peptide cleavage rate (AMC release) (pmol/min/200 pmol protease) [5]	substrate cleavage rate (AMC release) (pmol/min/200 pmol protease) [6]	substrate cleavage rate (AMC release) (pmol/min/200 pmol protease) [4]	substrate cleavage rate (AMC release) (pmol/min/200 pmol protease) [7]	substrate cleavage rate (AMC release) (pmol/min/200 pmol protease) [8]	further results
Cathepsin B	190	17.3	31.2	4.3	87	–	–	–	–	–
Cathepsin C	< 0.1	< 0.1	< 0.1	< 0.1	< 0.1	–	–	–	–	–
Cathepsin D	20	3.8	6.4	2.2	–	–	–	–	–	–
chymotrypsin	–	–	–	–	–	9	< 0.1	3.6	38.8	–
elastase	–	–	–	–	–	9	< 0.1	2.6	< 0.1	–
human kallikrein, hK1	–	–	–	–	–	–	< 0.1	< 0.1	< 0.1	–
plasmin	–	–	–	–	–	< 0.1	< 0.1	0.6	< 0.1	–
porcine liver esterase	< 0.1	< 0.1	< 0.1	< 0.1	< 0.1	–	–	–	–	–
prostate specific antigen (PSA)	< 0.1	62.7	29.6	31.6	0.4	16.8	31.6	14.4	16	Km [9]: 470 µM; Km [10]: 813 µM; Km [11]: 1160 µM; Km [12]: 310 µM; Kcat [2]: 0.011 s⁻¹; Kcat/Km [2]: 23.6 s^-1M^-1; Kcat [3]: 0.02 s⁻¹; Kcat/Km [3]: 24.6 s^-1M^-1; Kcat [4]: 0.02 s⁻¹; Kcat/Km [4]: 10.6 s^-1M^-1; Kcat [8]: 0.0091 s⁻¹; Kcat/Km [8]: 6.9 s^-1M^-1
thrombin	–	–	–	–	–	0.4	< 0.1	0.3	0.2	–
tissue plasminogen activator (TPA)	–	–	–	–	–	0.4	< 0.1	0.04	< 0.1	–
urokinase	–	–	–	–	–	–	< 0.1	< 0.1	< 0.1	–
